In PMC3953254:

Target: SadB (cytosolic construct without signal peptide, Cys-22 replaced by serine) (S. typhimurium) (UniProt Q8ZL65)
Assay: crystal structure; SadB at 8 mg/ml in 20 mM MOPS/HCl, pH 7, 50 mM NaCl; sitting drop at 20 °C; reservoir 0.2 M lithium sulfate, 0.1 M Tris, pH 8.5, 20% (w/v) PEG 4000; 2.45 Å

Question: How did the stoichiometry N turn out when “SadB (cytosolic construct without signal peptide, Cys-22 replaced by serine) (from UniProt Q8ZL65 22-227) (domain or fragment)” was run?
Answer: Its stoichiometry N is 3.
